According to patent US20110262445A1:

Molecular target: human IL-12, IL-23, IL-12p40
Test: SPR

- Kd: 0.04 to 0.07 nM
B1: Antibody 1 (antibody, human IgG1, kappa, V domains shown)
VH: EVQLQQSGADLVRSGASIKLSCTASGFNIKDYYMHWVKQRPEQGLEWIGWIDPENGDTEYAPKFQGKATMTADTSSNTAYLQLSSLTSEDTAVYYCNACKELRYFDVWGAGTTVTVSS
VL: DIVLTQSPATLSVTPGDSVSLSCRASQSISINLHWYQQKSHESPRLLIKFASQSISGIPSRFSGYGSGTDFTLSINSVETEDFGRYFCQQSNSWPLTFGAGTKLELKR
